Assay [1] concerns the target tau K18 ΔK280 (I260C/C291A/C322A), labelled with Alexa488 or Alexa647. Put plainly: FRET or BRET; single-molecule FRET between copies; 5 μM tau–Alexa488 + 5 μM tau–Alexa647, aggregation started with heparin (1:4 heparin/tau), 22-42 °C; aliquots diluted 12.500 times into low ionic strength buffer (no NaCl); confocal detection in a microfluidic channel, 6 min per time point. In general terms: BRET reads energy transfer from a luciferase to a nearby fluorophore.

Assay [2] has the same target. In words: FRET or BRET; single-molecule FRET between copies; 5 μM tau–Alexa488 + 5 μM tau–Alexa647, aggregation started with heparin (1:4 heparin/tau), 22-42 °C; aliquots diluted 12.500 times into high ionic strength buffer (0.5 M NaCl); confocal detection in a microfluidic channel, 6 min per time point.

“tau K18 ΔK280 (I260C/C291A/C322A), labelled with Alexa488 or Alexa647 (domain or fragment)”: in assay [1], the maximum observed concentration of type A oligomers (37 °C) was determined as 104 nM. Moreover, the maximum observed concentration of type B oligomers (37 °C) in assay [2] turned out to be 37 nM.

The record behind these values is paper PMC6302314.
